The values below come from paper PMC12119765, “Unveiling the potential of copper-61 vs. gallium-68 for SSTR PET imaging” (European Journal of Nuclear Medicine and Molecular Imaging, 2025).

Data set [1] deals with SSTR-expressing AR42J cells. Briefly: Cell uptake and internalization studies in SSTR-expressing AR42J cells. Type of data set: cell-based, rat. The settings on record: for Intracellular (internalized) activity: 2 h incubation time, 0.5 nM, Fig. 2C, percentage per million cells; for Maximum total uptake into AR42J: at 2 h, 0.5 nM radiolabeled peptide; for Membrane-bound fraction over time: glycine buffer wash fraction, 15 min to 2 h. On the procedure: The AR42J cell line, a natural SSTR-overexpressing epithelial-like cell isolated from a rat pancreatic tumor, was purchased from American Type Culture Collection (ATCC, CRL-1492) (Manassas, VA, USA) and cultured in F-12 K medium (ATCC, Catalog No. 30-2004) supplemented with 20% heat-inactivated fetal bovine serum (FBS, Gibco) and 1% PenStrep. The cells were maintained under standard adherent conditions in a humidified incubator with 5% CO2 at 37° C.
Cells were incubated at 37 °C for a maximum of 2–4 h (15 min, 30 min, 1 h, 2 h, and 4 h) for ^68Ga-based and ^61Cu-based radiopharmaceuticals, respectively. At the indicated time points, the cellular uptake was terminated by washing the cells with PBS. Cell surface-bound radioactivity was removed by an acid wash (50 mM glycine, pH 2.8) at RT for 5 min. The pH was neutralized with PBS, and the cells were lysed by incubation with 1 M NaOH at 37 °C for 5 min to determine internalized radioactivity. Each experiment was performed in triplicate. […] For blocking studies, parallel experiments were performed as described above, but cells were incubated in the presence of DOTA-TATE precursor (0.5 µM) at 37 °C for the same time points.

For the next data set, the system named is healthy control mice. In words: PET/MR imaging in healthy control mice. Type of data set: in vivo. On the procedure: (§1) A set of fiducial markers was used for an optimal PET/MRI co-registration. The breathing rate and body temperature of the animals were monitored throughout the imaging procedures (SA Instruments SA, USA). After the PET scan, a whole-body MRI was performed on a BioSpec 9.4T MRI scanner with a body volume resonator (transmitter/receiver) with the animal in the same position for anatomical co-localization. Anatomical reference images were obtained from axial and coronal multi-slice scans. A set of fiducial markers were used on the animal bed for an optimal PET/MRI co-registration. Quantitative image processing was performed using PMOD (PMOD, v 3.6; PMOD Technologies, Zürich, Switzerland, RRID: SCR_016547). FUSION Tools were used to deliniate volumes of interest (VOIs) on the PET images co-registered with the anatomical MRI. Blood samples were collected at 1, 2, and 4 h after injection for measurement of whole-blood radioactivity concentrations.

A short description of data set [2]: in vivo. The settings on record: male, athymic Swiss Foxn1nu, mouse, whole blood, total radioactivity. How it is done: as §1
(§2) Mice were sacrificed at 1.5–4.5 h p.i. and perfused with PBS. Organs including brain, heart, lung, liver, kidney, spleen, stomach, intestine, bone, and muscle were collected and weighted. Blood samples were collected via tail vein bleeding at different time points to monitor the residence time of the radiopharmaceuticals in the circulation. After sacrifice, urine was directly collected from the bladder for radio-HPLC analysis of radiopharmaceutical integrity. The radioactivity of each sample was measured using an automated CRC-55tW gamma well counter (Mirion Technologies - Atlanta, GA, USA). Results were expressed as the percentage of injected dose per gram (ID/g) of tissue and presented as the mean ± SEM (N = 3 per radiopharmaceutical).

The conditions of data set [3]: urine sample collected 4 h after i.v. injection. How it is done:
as §2

Data set [4] is described as follows: In vitro stability in the final formulation (10% EtOH) by radioHPLC. Type of data set: physicochemical. How it is done:
The HPLC method used is detailed in Table 1.
The stability of [^61Cu]Cu-NOTA-TATE was tested in the final formulation up to 6 h after EOS. At different time points (T0, T0 + 2, T0 + 4 and T0 + 6 h) aliquots were taken and measured using the previously described radioHPLC method.

A short description of data set [5]: in vivo. The settings on record: male, athymic Swiss Foxn1nu, mouse, intravenous, total radioactivity; for tissue uptake at 1 h: AR42J tumor. How it is done: (§3) Animal studies were approved by the Animal Welfare Committee of the Institute for Nuclear Sciences Applied to Health (ICNAS) of University of Coimbra (ORBEA 05-2024) and by the Portuguese National Authority for Animal Health (DGAV). Athymic male Swiss Foxn1nu mice (28–32 g, 6–8 weeks old) were purchased from ICNAS and housed under pathogen free conditions in individually ventilated cages. To establish the tumor model, animals were injected subcutaneously in the left flank with 3 × 10^6 AR42J cells resuspended in 100 µL of PBS 50 with 50% Matrigel. Tumor growth was monitored twice weekly by caliper measurements and were allowed to grow to a maximum volume of 1 cm^3.
as §2

For a further data set, the system named is AR42J tumor-bearing mice. In words: in vivo. The settings on record: AR42J tumor, 4 h p.i., mean ± SEM, N = 3. How it is done: as §3, §2
Data set [6] has as its system AR42J subcutaneous tumor-bearing mice. The following applies: 1 h p.i., i.v. On the procedure: as §3
as §1, with “Anatomical reference images were obtained from axial and coronal multi-slice scans. A set of fiducial markers were used on the animal bed for an optimal PET/MRI co-registration.” left out, “FUSION Tools were used to deliniate volumes of interest (VOIs) on the PET images co-registered with the anatomical MRI.” left out

In a further data set the test system is tumor. Also noted: method as in PMID 32297029. The following applies: cited from earlier work.

For `C[C@@H](O)[C@H](NC(=O)[C@@H]1CSSC[C@H](NC(=O)[C@@H](Cc2ccccc2)NC(=O)CN2CCN(CC(=O)O)CCN(CC(=O)O)CC2)C(=O)N[C@@H](Cc2ccc(O)cc2)C(=O)N[C@H](Cc2c[nH]c3ccccc23)C(=O)N[C@@H](CCCCN)C(=O)N[C@@H]([C@@H](C)O)C(=O)N1)C(=O)O` [[^61Cu]Cu-NOTA-TATE, metal not drawn], in data set [1], the “Intracellular (internalized) activity” value was found to be 51.4%, the “Maximum total uptake into AR42J” value is on record as 58.6 ± 3.6 %/10^6 cells and the “Membrane-bound fraction over time” value is reported as at most 10%. In addition, in the data set with healthy control mice (healthy control mice, 1 h and 4 h p.i.), the “Biodistribution profile in PET/MR images” value is “rapid clearance with marked accumulation in the kidneys and bladder”. For the same compound, in “in vivo [2]” (intravenous), the tissue uptake at 2 h is 0.13 ± 0.02 %ID/g and the tissue uptake at 4 h was 0.09 ± 0.004 %ID/g. Moreover, in the data set “in vivo [2]” (iv), the tissue uptake at 1 h was found to be 0.19 ± 0.003 %ID/g. The “Intact radiopharmaceutical in urine (radioHPLC)” value in [3] amounted to 100%. Also, the “Time stable after EOS” value in [4] (after the EOS) is reported as “at least 6 h”. For the same compound, the “In vitro stability (radiochemical purity by radioHPLC)” value in data set [4] (final formulation (10% EtOH), after 6 h of incubation) is given as above 95%. Also, the tissue uptake at 1 h in the data set “in vivo [5]” came out at 13.2 ± 1.86 %ID/g. Also, in the data set “in vivo [5]” (tumor and kidney), the tissue to tissue ratio at 1 h came out at 4.25 ± 1.09 and the tissue to tissue ratio at 4 h worked out at 17.3 ± 4.99. In “in vivo [5]” (tumor and liver), the tissue to tissue ratio at 1 h came out at 14.1 ± 4.29 and the tissue to tissue ratio at 4 h amounted to 21 ± 1.28. In addition, in the data set “in vivo [5]” (tumor and muscle), the tissue to tissue ratio at 1 h came out at 255 ± 64.7 and the tissue to tissue ratio at 4 h came to 495 ± 109. Moreover, the “Tumor uptake (tumor activity)” value in the data set on AR42J tumor-bearing mice is given as 12.81 ± 0.57 % ID/g.
Turning to `[Cl][Cu][Cl]` [[^61Cu]CuCl2, copper chloride, reference compound], the “Biodistribution profile in PET/MR images” value in the data set with healthy control mice (healthy mice, 1 h after injection) was “accumulation profile of free copper in the liver and the intestine”.
As for `C[C@@H](O)[C@H](NC(=O)[C@@H]1CSSC[C@H](NC(=O)[C@@H](Cc2ccccc2)NC(=O)CN2CCN(CC(=O)O)CCN(CC(=O)O)CCN(CC(=O)O)CC2)C(=O)N[C@@H](Cc2ccc(O)cc2)C(=O)N[C@H](Cc2c[nH]c3ccccc23)C(=O)N[C@@H](CCCCN)C(=O)N[C@@H]([C@@H](C)O)C(=O)N1)C(=O)O` [[^68Ga]Ga-DOTA-TATE, metal not drawn, reference compound], in [1], the “Intracellular (internalized) activity” value stood at 51.2%, the “Maximum total uptake into AR42J” value is 62.5 ± 1.9 %/10^6 cells and the “Membrane-bound fraction over time” value is at most 10%. In data set [6], the “Biodistribution profile in PET/MR images” value was “significant tumor and bladder accumulation”. Moreover, the Tumor uptake in the data set with tumor is recorded as 3.14 ± 2.07%. Besides, the tissue uptake at 1 h in “in vivo [5]” amounted to 8.73 ± 0.45 %ID/g.

One may read the tissue uptake as the percentage of the injected dose found per gram of tissue.
